Results taken from the supplement of paper PMC6757056.
± gives the standard deviation of the averaged measurements.

B1: library; a variant is named by its letters at N, in order (parent)
chain: GCUGUCACCGGUGUAUUACCCUAGUGGUCGACCGGUCUGAUGAGUCUNNNNNNAGACGAAACAGC

Legend:
[1] = variants of: B1; assay: normalized RNA/DNA level with ligand (relative to sTRSVctl = 100) (log10 (% of sTRSVctl)); ligand: hypoxanthine (xanthine aptamer); higher = less ribozyme self-cleavage, higher mRNA level; conditions: ligand concentration (+) RNA-Seq: 5 mM, HEK293T, reporter: mCherry (pCS4076), ligand present: yes
Method in brief: (§1)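 Library plasmids encoding reporter-linked ribozyme switches (mCherry, or eGFP for some folinic acid experiments) were transfected into HEK293T at 4 µg per 6-well well. Ligand, when used, was added 1 h before transfection. Total RNA was extracted with EDTA 72 h later, then reverse-transcribed, amplified, barcoded and sequenced. RNA level was RNA reads over DNA reads, divided by a spiked-in non-cleaving control (or the top 25 sequences), ×100, log10; only sequences with ≥100 DNA reads were kept.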

[2] = variants of: B1; assay: normalized RNA/DNA level without ligand (relative to sTRSVctl = 100) (log10 (% of sTRSVctl)); ligand: hypoxanthine (xanthine aptamer); higher = less ribozyme self-cleavage, higher mRNA level; conditions: HEK293T, reporter: mCherry (pCS4076), ligand present: no
Method in brief: as §1

GCUGUCACCGGUGUAUUACCCUAGUGGUCGACCGGUCUGAUGAGUCUAAUAUUAGACGAAACAGC [AAUAUU]
normalized RNA/DNA level with ligand (log10) [1]: 1.93 ± 0.088
normalized RNA/DNA level without ligand (log10) [2]: 1.88 ± 0.031

GCUGUCACCGGUGUAUUACCCUAGUGGUCGACCGGUCUGAUGAGUCUUAUCCCAGACGAAACAGC [UAUCCC]
normalized RNA/DNA level with ligand (log10) [1]: 1.95 ± 0.045
normalized RNA/DNA level without ligand (log10) [2]: 1.9 ± 0.023

GCUGUCACCGGUGUAUUACCCUAGUGGUCGACCGGUCUGAUGAGUCUUAUCCAAGACGAAACAGC [UAUCCA]
normalized RNA/DNA level with ligand (log10) [1]: 1.918 ± 0.0099
normalized RNA/DNA level without ligand (log10) [2]: 1.904 ± 0.011

GCUGUCACCGGUGUAUUACCCUAGUGGUCGACCGGUCUGAUGAGUCUGAUCCCAGACGAAACAGC [GAUCCC]
normalized RNA/DNA level with ligand (log10) [1]: 2.05 ± 0.042
normalized RNA/DNA level without ligand (log10) [2]: 1.889 ± 0.0035

GCUGUCACCGGUGUAUUACCCUAGUGGUCGACCGGUCUGAUGAGUCUGAUCCAAGACGAAACAGC [GAUCCA]
normalized RNA/DNA level with ligand (log10) [1]: 1.908 ± 0.0041
normalized RNA/DNA level without ligand (log10) [2]: 1.9 ± 0.03

GCUGUCACCGGUGUAUUACCCUAGUGGUCGACCGGUCUGAUGAGUCUCAUCAAAGACGAAACAGC [CAUCAA]
normalized RNA/DNA level with ligand (log10) [1]: 1.938 ± 0.011
normalized RNA/DNA level without ligand (log10) [2]: 1.81 ± 0.042

GCUGUCACCGGUGUAUUACCCUAGUGGUCGACCGGUCUGAUGAGUCUCAUCACAGACGAAACAGC [CAUCAC]
normalized RNA/DNA level with ligand (log10) [1]: 1.96 ± 0.06
normalized RNA/DNA level without ligand (log10) [2]: 1.92 ± 0.062

GCUGUCACCGGUGUAUUACCCUAGUGGUCGACCGGUCUGAUGAGUCUCAUCAUAGACGAAACAGC [CAUCAU]
normalized RNA/DNA level with ligand (log10) [1]: 1.921 ± 0.011
normalized RNA/DNA level without ligand (log10) [2]: 1.88 ± 0.043

GCUGUCACCGGUGUAUUACCCUAGUGGUCGACCGGUCUGAUGAGUCUUAUCAGAGACGAAACAGC [UAUCAG]
normalized RNA/DNA level with ligand (log10) [1]: 1.87 ± 0.019
normalized RNA/DNA level without ligand (log10) [2]: 1.7 ± 0.036

GCUGUCACCGGUGUAUUACCCUAGUGGUCGACCGGUCUGAUGAGUCUUAUCAUAGACGAAACAGC [UAUCAU]
normalized RNA/DNA level with ligand (log10) [1]: 1.922 ± 0.017
normalized RNA/DNA level without ligand (log10) [2]: 1.79 ± 0.045

GCUGUCACCGGUGUAUUACCCUAGUGGUCGACCGGUCUGAUGAGUCUCAUAUGAGACGAAACAGC [CAUAUG]
normalized RNA/DNA level with ligand (log10) [1]: 1.94 ± 0.016
normalized RNA/DNA level without ligand (log10) [2]: 1.86 ± 0.042

GCUGUCACCGGUGUAUUACCCUAGUGGUCGACCGGUCUGAUGAGUCUCAUAUUAGACGAAACAGC [CAUAUU]
normalized RNA/DNA level with ligand (log10) [1]: 1.91 ± 0.044
normalized RNA/DNA level without ligand (log10) [2]: 1.8 ± 0.041

GCUGUCACCGGUGUAUUACCCUAGUGGUCGACCGGUCUGAUGAGUCUAAUCCCAGACGAAACAGC [AAUCCC]
normalized RNA/DNA level with ligand (log10) [1]: 1.94 ± 0.024
normalized RNA/DNA level without ligand (log10) [2]: 1.84 ± 0.035

GCUGUCACCGGUGUAUUACCCUAGUGGUCGACCGGUCUGAUGAGUCUAAUCCAAGACGAAACAGC [AAUCCA]
normalized RNA/DNA level with ligand (log10) [1]: 1.92 ± 0.046
normalized RNA/DNA level without ligand (log10) [2]: 1.865 ± 0.015

GCUGUCACCGGUGUAUUACCCUAGUGGUCGACCGGUCUGAUGAGUCUCAUCCAAGACGAAACAGC [CAUCCA]
normalized RNA/DNA level with ligand (log10) [1]: 1.97 ± 0.056
normalized RNA/DNA level without ligand (log10) [2]: 1.94 ± 0.055

GCUGUCACCGGUGUAUUACCCUAGUGGUCGACCGGUCUGAUGAGUCUCAUCCCAGACGAAACAGC [CAUCCC]
normalized RNA/DNA level with ligand (log10) [1]: 1.935 ± 0.0098
normalized RNA/DNA level without ligand (log10) [2]: 1.91 ± 0.033

GCUGUCACCGGUGUAUUACCCUAGUGGUCGACCGGUCUGAUGAGUCUGAUAUUAGACGAAACAGC [GAUAUU]
normalized RNA/DNA level with ligand (log10) [1]: 1.8969 ± 0.0013
normalized RNA/DNA level without ligand (log10) [2]: 1.84 ± 0.038

GCUGUCACCGGUGUAUUACCCUAGUGGUCGACCGGUCUGAUGAGUCUAAUCAAAGACGAAACAGC [AAUCAA]
normalized RNA/DNA level with ligand (log10) [1]: 1.89 ± 0.066
normalized RNA/DNA level without ligand (log10) [2]: 1.75 ± 0.068

GCUGUCACCGGUGUAUUACCCUAGUGGUCGACCGGUCUGAUGAGUCUAAUCAGAGACGAAACAGC [AAUCAG]
normalized RNA/DNA level with ligand (log10) [1]: 1.838 ± 0.018
normalized RNA/DNA level without ligand (log10) [2]: 1.56 ± 0.041

GCUGUCACCGGUGUAUUACCCUAGUGGUCGACCGGUCUGAUGAGUCUGAUCAGAGACGAAACAGC [GAUCAG]
normalized RNA/DNA level with ligand (log10) [1]: 1.92 ± 0.05
normalized RNA/DNA level without ligand (log10) [2]: 1.72 ± 0.016

GCUGUCACCGGUGUAUUACCCUAGUGGUCGACCGGUCUGAUGAGUCUUAUAUUAGACGAAACAGC [UAUAUU]
normalized RNA/DNA level with ligand (log10) [1]: 1.907 ± 0.0056
normalized RNA/DNA level without ligand (log10) [2]: 1.847 ± 0.0083
